The text below walks through data of the Human Domainome abundance scans (Beltran et al. 2025).

First the molecules themselves.
B1: Metastasis-associated protein MTA3, residues 265 to 317; numbered along this chain, Q9BTC8 (parent)
chain: RDEMEEWSASEASLFEEALEKYGKDFNDIRQDFLPWKSLTSIIEYYYMWKTTD

± gives the uncertainty stated by the source.

The variants in the data set derive from B1. Kind of data set: abundance fitness (aPCA) (normalised: wild type 0, dead -1); higher = more abundant; growth selection in yeast, the domain comes from the species named. The following applies: Homo sapiens.
Turning to RDEMEEWTASEASLFEEALEKYGKDFNDIRQDFLPWKSLTSIIEYYYMWKTTD, the abundance fitness is 0.018 ± 0.1. Then RDEMEEWSASEASLFEEALEKYGKDFNDIRQDFLPWKSLTSIIEYYYMWKTTG, with 0.066 ± 0.16; and RDEMEEWSASEASLFEEALEKYGKDFNDIRQDFLPWKSLTSIIEYYYMWKTTT, with -0.41 ± 0.22; and RDEMEEWSASEASLFEEAEEKYGKDFNDIRQDFLPWKSLTSIIEYYYMWKTTD, with -0.809 ± 0.2. Take RDEMEEWSASEASLFEEAWEKYGKDFNDIRQDFLPWKSLTSIIEYYYMWKTTD: the abundance fitness is 0.043 ± 0.12. With RDEMKEWSASEASLFEEALEKYGKDFNDIRQDFLPWKSLTSIIEYYYMWKTTD the figure was -0.031 ± 0.16; with RDEMLEWSASEASLFEEALEKYGKDFNDIRQDFLPWKSLTSIIEYYYMWKTTD, -0.423 ± 0.076. In the case of RDEMAEWSASEASLFEEALEKYGKDFNDIRQDFLPWKSLTSIIEYYYMWKTTD, the abundance fitness is 0.173 ± 0.22. In the case of RDEMYEWSASEASLFEEALEKYGKDFNDIRQDFLPWKSLTSIIEYYYMWKTTD, the abundance fitness is -0.042 ± 0.47. As for RDEMREWSASEASLFEEALEKYGKDFNDIRQDFLPWKSLTSIIEYYYMWKTTD, the abundance fitness was -0.341 ± 0.09. As for RDEMEEWSASEANLFEEALEKYGKDFNDIRQDFLPWKSLTSIIEYYYMWKTTD, the abundance fitness was -0.261 ± 0.17. Turning to RDEMEEWSASEAILFEEALEKYGKDFNDIRQDFLPWKSLTSIIEYYYMWKTTD, the abundance fitness is -0.527 ± 0.23. For RDRMEEWSASEASLFEEALEKYGKDFNDIRQDFLPWKSLTSIIEYYYMWKTTD, the abundance fitness is -0.147 ± 0.11.

For the variant RDNMEEWSASEASLFEEALEKYGKDFNDIRQDFLPWKSLTSIIEYYYMWKTTD, the abundance fitness was found to be 0.993 ± 0.19. Turning to RDSMEEWSASEASLFEEALEKYGKDFNDIRQDFLPWKSLTSIIEYYYMWKTTD, the abundance fitness was 0.173 ± 0.09. Take RDEMEEWSASEASLFEEALEKYMKDFNDIRQDFLPWKSLTSIIEYYYMWKTTD: the abundance fitness is -0.735 ± 0.11. With RDEMESWSASEASLFEEALEKYGKDFNDIRQDFLPWKSLTSIIEYYYMWKTTD, the abundance fitness was -0.289 ± 0.19. With RDEMEDWSASEASLFEEALEKYGKDFNDIRQDFLPWKSLTSIIEYYYMWKTTD the figure was -0.443 ± 0.32; with RDEMEEWSASEASLFEEALEIYGKDFNDIRQDFLPWKSLTSIIEYYYMWKTTD, -0.418 ± 0.22. As for RDEMEEWSASEASLFEEALETYGKDFNDIRQDFLPWKSLTSIIEYYYMWKTTD, the abundance fitness is -0.443 ± 0.12. With RDEMEEWSASEASLFEEALEDYGKDFNDIRQDFLPWKSLTSIIEYYYMWKTTD, the abundance fitness is -0.579 ± 0.21. With RDEMEEWSASEASLPEEALEKYGKDFNDIRQDFLPWKSLTSIIEYYYMWKTTD the figure was -0.918 ± 0.22. As for RDEMEEWSASEASLNEEALEKYGKDFNDIRQDFLPWKSLTSIIEYYYMWKTTD, the abundance fitness was -0.969 ± 0.21. For RDEMEEWSASEASLEEEALEKYGKDFNDIRQDFLPWKSLTSIIEYYYMWKTTD, the abundance fitness was -0.695 ± 0.24. RDEMEEWSASEISLFEEALEKYGKDFNDIRQDFLPWKSLTSIIEYYYMWKTTD: the abundance fitness was -0.117 ± 0.17. RDEMEEWSASEASLFEEALEKYGKDFNDIRQDFLPWKSLTSIITYYYMWKTTD: the abundance fitness was -0.443 ± 0.081. Regarding RDEMEEWSASEASLFEEALEKYGKDFNDIRQDFLPWKSLTSIIKYYYMWKTTD, the abundance fitness is -0.246 ± 0.13. With RDEMEEWSASEASPFEEALEKYGKDFNDIRQDFLPWKSLTSIIEYYYMWKTTD the figure was -0.872 ± 0.2. As for RDEMEEWSASDASLFEEALEKYGKDFNDIRQDFLPWKSLTSIIEYYYMWKTTD, the abundance fitness was determined as 0.386 ± 0.078. As for RDEMEEWSASYASLFEEALEKYGKDFNDIRQDFLPWKSLTSIIEYYYMWKTTD, the abundance fitness is -0.788 ± 0.19. For the variant RDEMEEWSASEASLFEEALEKYGKDFNMIRQDFLPWKSLTSIIEYYYMWKTTD, the abundance fitness turned out to be 0.331 ± 0.2. For the variant RDEMEEWSASEASLFEEALEKYGKDFNDIRQDFLPWKSLTSIIEYYNMWKTTD, the abundance fitness came to 0.053 ± 0.29. As to RDEMEEWSASEASLFEEALEKYGKDFNDIRQDFLPWKSLTSIIEYYVMWKTTD, the abundance fitness was -0.681 ± 0.18.

Take RFEMEEWSASEASLFEEALEKYGKDFNDIRQDFLPWKSLTSIIEYYYMWKTTD: the abundance fitness was -0.133 ± 0.47. Then RDEMEEWSASEASLFEEALEKYGKDFNDIRQDFLPWKSLTSIIEYYYMWKTKD, with 0.344 ± 0.1; and RDEMEEWSASEASLFEEALEKYGKDFNDIRQDFLPWKSLTSIIEYYYMWKTFD, with -0.51 ± 0.37. Take RDEMEEWSASEASLFEEALEKYGKDFNDIRQDFLPWKSLTSQIEYYYMWKTTD: the abundance fitness was -0.875 ± 0.13. With RDEMEEWSASEASLFEEALEKYGKDFNDIRQDFLPWKSLTSTIEYYYMWKTTD the figure was -0.605 ± 0.089; with RDEMEEWSASEASLFEEALEKYGKDFNDIRQDFLPWKSLTSIIEWYYMWKTTD, -0.546 ± 0.39.

As for RDEMEEWSASEASLFEEALEKYGKDFNDIRQDFLPWKSLTSIIETYYMWKTTD, the abundance fitness is -0.41 ± 0.42. For RDEMEEASASEASLFEEALEKYGKDFNDIRQDFLPWKSLTSIIEYYYMWKTTD, the abundance fitness was -0.51 ± 0.12. With RDEMEEDSASEASLFEEALEKYGKDFNDIRQDFLPWKSLTSIIEYYYMWKTTD the figure was -0.814 ± 0.28; with RDEMEEFSASEASLFEEALEKYGKDFNDIRQDFLPWKSLTSIIEYYYMWKTTD, -0.681 ± 0.26. As to RDEMEEYSASEASLFEEALEKYGKDFNDIRQDFLPWKSLTSIIEYYYMWKTTD, the abundance fitness is -0.496 ± 0.19. As to RDEMEENSASEASLFEEALEKYGKDFNDIRQDFLPWKSLTSIIEYYYMWKTTD, the abundance fitness is -0.697 ± 0.18. As to RDEMEEWSASEASLFEEALEKYGKDFNDIRQDFLPWKSLTSIIEYSYMWKTTD, the abundance fitness was -0.457 ± 0.2. In the case of RDEMEEWSASEASLFEEALEKYGKDFNDIRQDFLPWKSLTSIIEYLYMWKTTD, the abundance fitness is -0.851 ± 0.39.

Consider RDEMEEWSASEASLFEEALEKYGKDFNDIRQDFLPWKKLTSIIEYYYMWKTTD, for which the abundance fitness is -0.852 ± 0.23. In the case of RDEMEEWSASEASLFEEALEKYGKDFNDIRQDFLPWKCLTSIIEYYYMWKTTD, the abundance fitness is -0.995 ± 0.47. For RDEMEEWSASEASLFEEALEKYGKDFNDIRQDFLPWKELTSIIEYYYMWKTTD, the abundance fitness stood at 0.047 ± 0.17.
